This note sets out measurements from article PMC8405998, “Catalytic mechanism of ancestral L-lysine oxidase assigned by sequence data mining” (The Journal of Biological Chemistry, 2021).

In series [1] the test system is N=C(N)NCCC[C@H](N)C(=O)O. The experiment in a line: purified protein. The conditions noted are these: 100 mM Bis-Tris-HCl pH 7.0, O2 as co-substrate.
In series [2] the target is T1, AncLLysO (synthetic construct, UniProt Z9DQU9YC40).
T1 sequence (Z9DQU9YC40 1-589): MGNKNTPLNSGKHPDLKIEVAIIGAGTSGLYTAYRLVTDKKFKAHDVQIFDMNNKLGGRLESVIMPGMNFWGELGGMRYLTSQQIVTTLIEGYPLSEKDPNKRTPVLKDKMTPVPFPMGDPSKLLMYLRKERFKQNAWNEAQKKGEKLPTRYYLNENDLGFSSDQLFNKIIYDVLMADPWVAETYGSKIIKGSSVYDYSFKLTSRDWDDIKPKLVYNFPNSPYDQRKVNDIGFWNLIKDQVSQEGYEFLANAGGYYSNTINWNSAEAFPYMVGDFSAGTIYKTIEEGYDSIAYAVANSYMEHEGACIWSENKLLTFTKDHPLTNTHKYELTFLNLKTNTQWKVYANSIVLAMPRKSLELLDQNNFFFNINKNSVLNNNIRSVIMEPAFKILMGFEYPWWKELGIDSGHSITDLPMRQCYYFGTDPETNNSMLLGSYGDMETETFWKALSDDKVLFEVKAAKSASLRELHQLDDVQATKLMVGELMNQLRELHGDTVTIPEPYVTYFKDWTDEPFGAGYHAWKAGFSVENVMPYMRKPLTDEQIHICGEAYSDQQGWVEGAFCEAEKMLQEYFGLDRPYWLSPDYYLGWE
The experiment in a line: X-ray crystal structure, […]-2.[…] Å. The conditions noted are these: substrate-free form; crystals at pH 7.5. The class given is binding.

Substrate in series [3]: N=C(N)NCCC[C@H](N)C(=O)O
The experiment in a line: purified protein. The conditions noted are these: 100 mM Bis-Tris-HCl pH 7.0, O2 as co-substrate. This is another data set of the same source.

Substrate in series [4]: NCCCC[C@H](N)C(=O)O
The experiment in a line: purified protein. The conditions noted are these: 100 mM Bis-Tris-HCl pH 7.0, O2 as co-substrate.

Substrate in series [5]: NCCC[C@H](N)C(=O)O
The experiment in a line: purified protein. The settings on record: 100 mM Bis-Tris-HCl pH 7.0, O2 as co-substrate.

AncLLysO (synthetic construct): in series [1], the Km (commonly the concentration of substrate that gives half-maximal velocity) amounted to 6900 ± 1100 µM, the kcat (commonly the maximal rate divided by the concentration of active sites) was 11.4 ± 1 s⁻¹ and the specificity constant (kcat/Km) (usually the second-order rate constant that governs catalysis at low substrate concentration) is 1700 M⁻¹ s⁻¹.
As for `Cc1cc2nc3c(=O)[nH]c(=O)nc-3n(C[C@H](O)[C@H](O)[C@H](O)COP(=O)(O)OP(=O)(O)OC[C@H]3O[C@@H](n4cnc5c(N)ncnc54)[C@H](O)[C@@H]3O)c2cc1C` [FAD], the “X-ray crystal structure, 2.2-2.4 Å” value in series [2] is “the Rossmann-core fold, which recognizes FAD”.

B1: CaLLysO (Chryseobacterium angstadtii) (protein)
chain: MNKNTPLNTGKQPDLKTEVAIIGAGTSGLYTAYRLVTDKKYTASEVQIFDMNDKLGGRLESVIMPGMNFWGELGGMRYLTSQEIVTTLIEGYPLSETDPAKRIPVLKDKMTPVPFPMGDPSKLLMYLRKDRCKQDAWTVAQGEGEKLPTRYYLNDDDFGFSSDQLFNKVIYDVLMADAWVAETYGKKIIKGSSIYDYSFELTSRDWDDIKPKLVYNFPNSPYDQRKVNDLGFWNLLKDQVSQEGYEFLANAGGYYSNTINWNAAEAFPYMVGDFSAGTIYKTIEEGYDSIAYAVANSYMEHEGACIWSKNKLLTFTKDHDLKSTYKYRLTFLNLETNTQWNVYANTLVLAMPRKSLELLDQDNFFFNINENSVLNENIRSVIMEPAFKILMGFPYPWWKELGIDSGHSITDLPMRQCYYFGTDPQTNNSMLLGSYGDMETETFWKALSDDKILFEVKAAKSASLKELHELDDVQATRMMVDELMNQLRELHGEEITIPEPYVTYFKDWTDEPFGAGYHAWKAGFSVENVMPYMRKPVADEQIHIVGEAYSDQQGWVEGAFCEAEKMLQEYFGLNRPIWLNPDYYLGW
For B1, the Km turned out to be 340 ± 30 µM in series [3], 27 ± 3 µM in series [4] and 4400 ± 400 µM in series [5]. Besides, the kcat in series [3] came to 11.4 ± 0.1 s⁻¹; in series [5], 3.6 s⁻¹. For the same molecule, the kcat/Km was determined as 33200 M⁻¹ s⁻¹ in series [3] and 810 M⁻¹ s⁻¹ in series [5].
